The assay addresses T1, EPRS (glutamyl-prolyl tRNA synthetase) (UniProt P07814 1-1512).
T1 construct: Endogenous protein in LC319 cell lysate, identified by MALDI-TOF mass spectrometry as a 180-kDa band; also called 180-kDa band
Kind of assay: tandem immunoprecipitation (anti-FLAG M2, then anti-HA) from transfected LC319 lysate, silver-stained SDS-PAGE, MALDI-TOF MS. As for the experimental part:
Cell extracts from lung-cancer cell line LC319 transfected with the plasmids expressing N-terminal FLAG-tagged and C-terminal HA-tagged-pCAGGS-IMS-E21 (URLC8) vector or mock vector (control) were pre-cleared by incubation at 4° C. for 1 hour with 100 μL of protein G-agarose beads in a final volume of 2 ml of IP-buffer (0.5% NP-40, 50 mM Tris-HCl, 150 mM NaCl) in the presence of proteinase inhibitor. After centrifugation at 1000 rpm for 5 min at 4° C., the supernatant was incubated at 4° C. with anti-Flag M2 agarose for 2 hours. The beads were then collected by centrifugation at 5000 rpm for 2 min and washed six times with 1 ml of each immunoprecipitation buffer. Then, the washed beads were eluted by Flag-peptide (Sigma-Aldrich Co., St. Louis, Mo.). The elution was incubated at 4° C. with anti-HA agarose for 2 hours. The washed beads were resuspended in 50 μL of Laemmli sample buffer and boiled for 5 min, and the proteins were separated by 5-10% SDS PAGE gels (BIO RAD). After electrophoresis, the gels were stained with silver. Protein bands specifically found in IMS-E21 (URLC8)- transfected extracts were excised and served for matrix-assisted laser desorption/ionization-time of flight mass spectrometry (MALDI-TOF-MS) analysis (AXIMA-CFR plus, SHIMADZU BIOTECH, Kyoto, Japan). […]

T1 sequence (P07814 whole entry): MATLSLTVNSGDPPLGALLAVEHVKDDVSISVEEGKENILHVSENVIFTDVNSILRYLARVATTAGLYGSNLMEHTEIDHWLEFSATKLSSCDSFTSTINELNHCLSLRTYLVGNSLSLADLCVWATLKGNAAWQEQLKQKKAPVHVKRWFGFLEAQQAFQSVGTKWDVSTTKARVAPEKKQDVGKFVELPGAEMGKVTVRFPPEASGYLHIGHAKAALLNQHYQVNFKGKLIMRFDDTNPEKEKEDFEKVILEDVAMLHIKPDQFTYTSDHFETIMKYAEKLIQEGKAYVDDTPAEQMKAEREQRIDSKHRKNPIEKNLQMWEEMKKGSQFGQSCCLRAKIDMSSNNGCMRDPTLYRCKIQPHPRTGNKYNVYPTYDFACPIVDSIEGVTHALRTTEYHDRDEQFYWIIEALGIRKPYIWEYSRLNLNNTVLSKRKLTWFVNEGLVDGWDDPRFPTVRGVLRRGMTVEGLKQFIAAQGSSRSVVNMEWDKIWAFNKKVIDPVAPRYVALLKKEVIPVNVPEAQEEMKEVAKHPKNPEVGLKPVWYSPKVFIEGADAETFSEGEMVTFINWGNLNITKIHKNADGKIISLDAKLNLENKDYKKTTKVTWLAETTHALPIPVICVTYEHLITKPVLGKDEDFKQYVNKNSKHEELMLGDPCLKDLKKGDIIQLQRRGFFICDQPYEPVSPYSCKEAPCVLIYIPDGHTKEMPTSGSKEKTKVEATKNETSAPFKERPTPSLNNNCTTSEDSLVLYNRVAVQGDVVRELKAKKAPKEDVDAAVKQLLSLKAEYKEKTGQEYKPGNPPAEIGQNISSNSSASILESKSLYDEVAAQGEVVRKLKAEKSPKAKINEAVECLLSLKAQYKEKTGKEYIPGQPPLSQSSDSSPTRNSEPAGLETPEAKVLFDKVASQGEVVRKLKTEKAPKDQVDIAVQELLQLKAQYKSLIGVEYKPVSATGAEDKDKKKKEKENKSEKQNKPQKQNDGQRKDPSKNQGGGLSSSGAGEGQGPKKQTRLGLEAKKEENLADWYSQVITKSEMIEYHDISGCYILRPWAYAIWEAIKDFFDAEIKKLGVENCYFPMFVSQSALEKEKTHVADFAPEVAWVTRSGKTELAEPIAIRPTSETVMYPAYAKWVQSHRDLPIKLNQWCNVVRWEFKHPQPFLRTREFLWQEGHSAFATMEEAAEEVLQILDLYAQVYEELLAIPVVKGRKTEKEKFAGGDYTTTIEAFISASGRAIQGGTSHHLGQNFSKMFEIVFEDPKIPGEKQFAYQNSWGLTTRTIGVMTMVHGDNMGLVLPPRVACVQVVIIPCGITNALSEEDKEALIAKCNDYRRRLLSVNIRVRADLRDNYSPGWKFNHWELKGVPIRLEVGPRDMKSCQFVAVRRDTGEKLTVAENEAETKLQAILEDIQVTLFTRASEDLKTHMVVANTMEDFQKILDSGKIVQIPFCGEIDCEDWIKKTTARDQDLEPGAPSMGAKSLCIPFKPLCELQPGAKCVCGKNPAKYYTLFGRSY

B1: N-terminal FLAG-tagged and C-terminal HA-tagged IMS-E21 (URLC8) (enzyme)
chain: MILNSLSLCYHNKLILAPMVRVGTLPMRLLALDYGADIVYCEELIDLKMIQCKRVVNEVLSTVDFVAPDDRVVFRTCEREQNRVVFQMGTSDAERALAVARLVENDVAGIDVNMGCPKQYSTKGGMGAALLSDPDKIEKILSTLVKGTRRPVTCKIRILPSLEDTLSLVKRIERTGIAAIAVHGRKREERPQHPVSCEVIKAIADTLSIPVIANGGSHDHIQQYSDIEDFRQATAASSVMVARAAMWNPSIFLKEGLRPLEEVMQKYIRYAVQYDNHYTNTKYCLCQMLREQLESPQGRLLHAAQSSREICEAFGLGAFYEETTQELDAQQARLSAKTSEQTGEPAEDTSGVIKMAVKFDRRAYPAQITPKMCLLEWCRREKLAQPVYETVQRPLDRLFSSIVTVAEQKYQSTLWDKSKKLAEQAAAIVCLRSQGLPEGRLGEESPSLHKRKREAPDQDPGGPRAQELAQPGDLCKKPFVALGSGEESPLEGW
notes: Expressed from a pCAGGS vector in transfected LC319 cells; also called FLAG-tagged and HA-tagged-pCAGGS-IMS-E21; not shown: N-terminal FLAG tag; C-terminal HA tag
For the molecule B1, the binding result is listed as “binds”.

The values above are taken from US20080119428A1 (ONCOTHERAPY SCIENCE, published 2008).
